Tests used:
[1] = target: human polyclonal IgG (Gammanorm) (human); test: pH 6-3 citrate gradient elution from column, peak 1
[2] = target: human polyclonal IgG (Gammanorm) (human); test: pH 6-3 citrate gradient elution from column, peak 2
[3] = target: human polyclonal IgG (Gammanorm) (human); test: dynamic binding capacity, measured after six 4 h cycles in 1.0 M NaOH; ligand 9.7 mg/ml on agarose beads
[4] = target: human polyclonal IgG (Gammanorm) (human); test: dynamic binding capacity, 6 min residence; ligand 9.7 mg/ml on agarose beads
[5] = target: human polyclonal IgG (Gammanorm) (human); test: as above; remark: listed apart in the source
[6] = target: human polyclonal IgG (Gammanorm) (human); test: dynamic binding capacity, measured after 24 h cumulative exposure to 0.5 M NaOH; ligand 9.7 mg/ml on agarose beads
[7] = target: human polyclonal IgG (Gammanorm) (human); test: dynamic binding capacity, measured after 24 h cumulative exposure to 0.5 M NaOH; ligand 7.0 mg/ml on agarose beads
[8] = target: human polyclonal IgG (Gammanorm) (human); test: dynamic binding capacity, measured after 24 h cumulative exposure to 0.5 M NaOH; ligand […] on agarose beads
[9] = target: human polyclonal IgG (Gammanorm) (human); test: dynamic binding capacity, 6 min residence; ligand 7.0 mg/ml on agarose beads
[10] = target: human polyclonal IgG (Gammanorm) (human); test: dynamic binding capacity, 6 min residence; ligand […] on agarose beads
[11] = target: IgG1 monoclonal antibody (probe molecule, Example 1); test: SPR (Biacore), ligand on CM5 chip, IgG1 mAb as probe
[12] = target: human polyclonal IgG (Gammanorm) (human); test: dynamic binding capacity, 6 min residence; ligand 7.2 mg/ml on agarose beads
[13] = target: human polyclonal IgG (Gammanorm) (human); test: dynamic binding capacity, measured after six 4 h cycles in 1.0 M NaOH; ligand […] on agarose beads
[14] = target: human polyclonal IgG (Gammanorm) (human); test: dynamic binding capacity, measured after 24 h cumulative exposure to 0.5 M NaOH; ligand 7.2 mg/ml on agarose beads
[15] = target: human polyclonal IgG (Gammanorm) (human); test: dynamic binding capacity, 6 min residence; ligand […] on agarose beads; remark: listed apart in the source
[16] = target: human polyclonal IgG (Gammanorm) (human); test: dynamic binding capacity; matrix A63b, ligand 16.7 mg/ml
[17] = target: human polyclonal IgG (Gammanorm) (human); test: dynamic binding capacity; matrix A20, ligand […]
[18] = target: human polyclonal IgG (Gammanorm) (human); test: dynamic binding capacity; matrix A56-2, ligand 12.5 mg/ml
[19] = target: human polyclonal IgG (Gammanorm) (human); test: dynamic binding capacity; matrix A54, ligand 21.1 mg/ml
[20] = target: human polyclonal IgG (Gammanorm) (human); test: dynamic binding capacity; matrix H35, ligand […]
[21] = target: human polyclonal IgG (Gammanorm) (human); test: dynamic binding capacity; matrix P10, ligand 19.0 mg/ml
[22] = target: human polyclonal IgG (Gammanorm) (human); test: dynamic binding capacity; matrix A56-2, ligand […]
[23] = target: human polyclonal IgG (Gammanorm) (human); test: dynamic binding capacity; matrix A56-2, ligand 19.2 mg/ml
[24] = target: human polyclonal IgG (Gammanorm) (human); test: dynamic binding capacity; matrix A38, ligand 15.8 mg/ml
[25] = target: human polyclonal IgG (Gammanorm) (human); test: dynamic binding capacity; matrix A56, ligand 15.2 mg/ml
[26] = target: human polyclonal IgG (Gammanorm) (human); test: dynamic binding capacity; matrix C4, ligand 11.2 mg/ml
[27] = target: human polyclonal IgG (Gammanorm) (human); test: pH 6-3 citrate gradient elution from column, peak 1; ligand […]
[28] = target: human polyclonal IgG (Gammanorm) (human); test: dynamic binding capacity; matrix A62a, ligand […]
[29] = target: human polyclonal IgG (Gammanorm) (human); test: dynamic binding capacity; matrix H40, ligand […]; details: ligand content 6.9 mg/ml
[30] = target: human polyclonal IgG (Gammanorm) (human); test: dynamic binding capacity; matrix A20, ligand 6.4 mg/ml
[31] = target: human polyclonal IgG (Gammanorm) (human); test: dynamic binding capacity; matrix H35, ligand 20.3 mg/ml
[32] = target: human polyclonal IgG (Gammanorm) (human); test: dynamic binding capacity; matrix A20, ligand 21.1 mg/ml
[33] = target: human polyclonal IgG (Gammanorm) (human); test: pH 6-3 citrate gradient elution from column, peak 2; ligand […]
[34] = target: human polyclonal IgG (Gammanorm) (human); test: dynamic binding capacity; matrix H31, ligand […]
[35] = target: human polyclonal IgG (Gammanorm) (human); test: dynamic binding capacity; matrix A62a, ligand 9.6 mg/ml
[36] = target: human polyclonal IgG (Gammanorm) (human); test: dynamic binding capacity; matrix A56, ligand 7.9 mg/ml
[37] = target: human polyclonal IgG (Gammanorm) (human); test: dynamic binding capacity; matrix H40, ligand 23.0 mg/ml
[38] = target: human polyclonal IgG (Gammanorm) (human); test: dynamic binding capacity; matrix A63b, ligand 6.4 mg/ml
[39] = target: human polyclonal IgG (Gammanorm) (human); test: dynamic binding capacity; matrix A56, ligand 19.2 mg/ml
[40] = target: human polyclonal IgG (Gammanorm) (human); test: dynamic binding capacity; matrix H31, ligand 20.0 mg/ml
[41] = target: human polyclonal IgG (Gammanorm) (human); test: dynamic binding capacity; matrix A38, ligand 11.6 mg/ml
[42] = target: human polyclonal IgG (Gammanorm) (human); test: dynamic binding capacity; matrix A38, ligand […]
[43] = target: human polyclonal IgG (Gammanorm) (human); test: dynamic binding capacity; matrix C3, ligand […]
[44] = target: human polyclonal IgG (Gammanorm) (human); test: dynamic binding capacity; matrix C4, ligand 15.2 mg/ml
[45] = target: human polyclonal IgG (Gammanorm) (human); test: dynamic binding capacity; matrix A56, ligand […]; details: ligand content 7.1 mg/ml
[46] = target: human polyclonal IgG (Gammanorm) (human); test: dynamic binding capacity; matrix C3, ligand 11.9 mg/ml
[47] = target: human polyclonal IgG (Gammanorm) (human); test: dynamic binding capacity; matrix A54, ligand […]; details: ligand content 6.7 mg/ml
[48] = target: human polyclonal IgG (Gammanorm) (human); test: dynamic binding capacity; matrix A33, ligand […]; details: ligand content 6.5 mg/ml
[49] = target: human polyclonal IgG (Gammanorm) (human); test: dynamic binding capacity; matrix A63b, ligand 10.6 mg/ml
[50] = target: human polyclonal IgG (Gammanorm) (human); test: dynamic binding capacity; matrix H35, ligand 12.3 mg/ml
[51] = target: human polyclonal IgG (Gammanorm) (human); test: dynamic binding capacity; matrix S9, ligand 18.4 mg/ml
[52] = target: human polyclonal IgG (Gammanorm) (human); test: dynamic binding capacity; matrix C3, ligand 15.1 mg/ml
[53] = target: human polyclonal IgG (Gammanorm) (human); test: dynamic binding capacity, 6 min residence; ligand 10.8 mg/ml on agarose beads
[54] = target: human polyclonal IgG (Gammanorm) (human); test: dynamic binding capacity, measured after 24 h cumulative exposure to 0.5 M NaOH; ligand 10.8 mg/ml on agarose beads

MabSelect SuRe LX (GE Healthcare Life Sciences)
Elution pH [1]: 4.01 pH | Elution pH [2]: 3.7 pH

Zvar(N11K, H18K, S33K, D37E, A42R, N43A, L44I, K50R, L51Y)4 with an additional N-terminal cysteine (Examples 4 and 5) (designed binder)
Remaining IgG capacity Qb10 after six 4 h cycles [3]: 48.1 mg/mL | Initial IgG capacity Qb10 [4]: 62.1 mg/mL | Initial IgG capacity Qb10 [5]: 56.3 mg/mL | Remaining IgG capacity Qb10 after six 4 h cycles [6]: 52 mg/mL

Zvar(Q9A, N11E, N28A, N43A)4 with an additional N-terminal cysteine (Example 4) (designed binder)
Remaining IgG capacity Qb10 after six 4 h cycles [7]: 44.1 mg/mL | Remaining IgG capacity Qb10 after six 4 h cycles [8]: 46.2 mg/mL | Initial IgG capacity Qb10 [9]: 49.1 mg/mL | Initial IgG capacity Qb10 [10]: 50 mg/mL

Zvar(Q9A, N11E, Q40V, A42K, N43A, L44I)1 (designed binder)
Kd [11]: 1.07 nM | koff [11]: 0.000437 s⁻¹ | kon [11]: 410000 M⁻¹ s⁻¹

Zvar(Q9A, N11E, Q40V, A42K, N43A, L44I)4 with an additional N-terminal cysteine (Examples 4 and 5) (designed binder)
Initial IgG capacity Qb10 [12]: 49 mg/mL | Remaining IgG capacity Qb10 after six 4 h cycles [13]: 56 mg/mL | Remaining IgG capacity Qb10 after six 4 h cycles [14]: 44.2 mg/mL | Remaining IgG capacity Qb10 after six 4 h cycles [8]: 53.6 mg/mL | Initial IgG capacity Qb10 [15]: 60.3 mg/mL | Initial IgG capacity Qb10 [10]: 56.3 mg/mL

Zvar(Q9A, N11E, Q40V, A42K, N43A, L44I)6 (designed binder)
Qb10% 2.4 min [16]: 53 mg/mL | Qb10% 6 min [16]: 69 mg/mL | Qb10% 2.4 min [17]: 38 mg/mL | Qb10% 6 min [17]: 64 mg/mL | Qb10% 2.4 min [18]: 59 mg/mL | Qb10% 6 min [18]: 72 mg/mL | Qb10% 2.4 min [19]: 38 mg/mL | Qb10% 6 min [19]: 65 mg/mL | Qb10% 2.4 min [20]: 36 mg/mL | Qb10% 6 min [20]: 49 mg/mL | Qb10% 6 min [21]: 76 mg/mL | Qb10% 2.4 min [22]: 50 mg/mL | Qb10% 6 min [22]: 58 mg/mL | Qb10% 2.4 min [23]: 61 mg/mL | Qb10% 6 min [23]: 82 mg/mL | Qb10% 2.4 min [24]: 36 mg/mL | Qb10% 6 min [24]: 62 mg/mL | Qb10% 2.4 min [25]: 48 mg/mL | Qb10% 6 min [25]: 76 mg/mL | Qb10% 2.4 min [26]: 62 mg/mL | Qb10% 6 min [26]: 74 mg/mL | Elution pH [27]: 4.24 pH | Qb10% 2.4 min [28]: 62 mg/mL | Qb10% 6 min [28]: 84 mg/mL | Qb10% 2.4 min [29]: 50 mg/mL | Qb10% 6 min [29]: 56 mg/mL | Qb10% 2.4 min [30]: 41 mg/mL | Qb10% 6 min [30]: 56 mg/mL | Qb10% 2.4 min [31]: 20 mg/mL | Qb10% 6 min [31]: 43 mg/mL | Qb10% 2.4 min [32]: 44 mg/mL | Qb10% 6 min [32]: 43 mg/mL | Elution pH [33]: 3.81 pH | Qb10% 2.4 min ([34]; ligand content 6.5 mg/ml): 37 mg/mL | Qb10% 6 min ([34]; ligand content 6.5 mg/ml): 38 mg/mL | Qb10% 2.4 min ([34]; ligand content 10.4 mg/ml): 50 mg/mL | Qb10% 6 min ([34]; ligand content 10.4 mg/ml): 61 mg/mL | Qb10% 2.4 min [35]: 56 mg/mL | Qb10% 6 min [35]: 72 mg/mL | Qb10% 2.4 min [36]: 47 mg/mL | Qb10% 6 min [36]: 55 mg/mL | Qb10% 2.4 min [37]: 41 mg/mL | Qb10% 6 min [37]: 65 mg/mL | Qb10% 2.4 min [38]: 42 mg/mL | Qb10% 6 min [38]: 46 mg/mL | Qb10% 2.4 min [39]: 55 mg/mL | Qb10% 6 min [39]: 80 mg/mL | Qb10% 2.4 min [40]: 31 mg/mL | Qb10% 6 min [40]: 52 mg/mL | Qb10% 2.4 min [41]: 48 mg/mL | Qb10% 6 min [41]: 72 mg/mL | Qb10% 2.4 min [42]: 47 mg/mL | Qb10% 6 min [42]: 57 mg/mL | Qb10% 2.4 min [43]: 48 mg/mL | Qb10% 6 min [43]: 59 mg/mL | Qb10% 2.4 min [44]: 57 mg/mL | Qb10% 6 min [44]: 82 mg/mL | Qb10% 2.4 min [45]: 48 mg/mL | Qb10% 6 min [45]: 57 mg/mL | Qb10% 2.4 min [46]: 51 mg/mL | Qb10% 6 min [46]: 73 mg/mL | Qb10% 2.4 min [47]: 38 mg/mL | Qb10% 6 min [47]: 46 mg/mL | Qb10% 2.4 min [48]: 44 mg/mL | Qb10% 6 min [48]: 53 mg/mL | Qb10% 2.4 min [49]: 49 mg/mL | Qb10% 6 min [49]: 60 mg/mL | Qb10% 2.4 min [50]: 31 mg/mL | Qb10% 6 min [50]: 54 mg/mL | Qb10% 2.4 min [51]: 56 mg/mL | Qb10% 6 min [51]: 75 mg/mL | Qb10% 2.4 min [52]: 43 mg/mL | Qb10% 6 min [52]: 61 mg/mL

Zvar(Q9A, N11K, H18K, D37E, A42R)4 with an additional N-terminal cysteine (Example 4) (designed binder)
Initial IgG capacity Qb10 [53]: 56.9 mg/mL | Remaining IgG capacity Qb10 after six 4 h cycles [54]: 52.5 mg/mL
